Source: publication PMC5726854

Assays:
[1] = target: Hfx. volcanii ribosomes (Haloferax volcanii (endogenous in H1895)); assay: FRAP (diffusion coefficient in living cells); Hfx. volcanii cytoplasm, 30°C; fraction bound from the effective diffusion coefficient; Kd per binding site with the ribosome concentration assumed as in E. coli
[2] = target: L. lactis ribosomes (Lactococcus lactis (endogenous in NZ9000)); assay: FRAP (diffusion coefficient in living cells); L. lactis cytoplasm, 30°C; fraction bound from the effective diffusion coefficient; Kd per binding site with the ribosome concentration assumed as in E. coli
[3] = target: E. coli ribosomes (E. coli); assay: FRAP (diffusion coefficient in living cells); E. coli cytoplasm, 30°C, 0.28 Osm; fraction bound from the effective diffusion coefficient (Equation 1); Kd per binding site from Equation 2 with 660 µM binding sites assumed

With +25 GFP (expressed in Hfx. volcanii) as the substance, how does the Kd [1] read?
The Kd was 155 µM.

What about the fraction bound [1] of the same substance?
Its fraction bound is 0.81.

For +25 GFP (expressed in L. lactis), which Kd [2] is on record?
The Kd was 65 µM.

Which Kd [3] does the source give for +25 GFP here?
The Kd was 6.7 µM.

And the fraction bound [3]?
The fraction bound was 0.99.
